Results on two substances are retold here after publication PMC4980113.

The target in assay [1] is Dip (gp37, degradosome interacting protein) of giant phage φKZ, His-tagged (Pseudomonas phage φKZ). The assay can be described thus: AUC; analytical ultracentrifugation of Dip in solution; data not shown.
Assay [2] shares this target. The experiment in a line: ELISA; 350 nM Dip (C-terminal his-tag) held on Ni-NTA HisSorb strips, increasing amounts of RNA degradosome, detected by anti-Strep-tag II-HRP.

For orientation: stoichiometry N means the number of molecules, sites or subunits per partner or assembly. The substance “Dip (gp37, degradosome interacting protein) of giant phage φKZ, His-tagged (natural protein)” registered a stoichiometry N in assay [1] of 2.
In the case of “RNA degradosome of P. aeruginosa, purified (C-terminal Strep-tag II on RNase E) (from UniProt Q9HZM8 1-1057) (complex)”, the Dip protomers per degradosome protomer at saturation of the signal (Dip protomers per degradosome protomer) in assay [2] turned out to be 10.
